Results on six molecules are retold here after article PMC7935764 (Structure (London, England : 1993), 2020).

In data set [1] the target is IN CCD^F185K (HIV-1 (NL4-3)). The experiment in a line: AUC.
Data set [2] concerns the target HIV integrase CTD CTD (Human immunodeficiency virus 1) (UniProt O93215). The experiment in a line: NMR. The following applies: cited from earlier work.
Data set [3] deals with HIV-1 integrase IN^F185H,L242A (HIV-1 (NL4-3)). The experiment in a line: SEC-MALS. (In general: Size exclusion chromatography separates by hydrodynamic size, large species first.)
Data set [4] has the same target. The experiment in a line: AUC.
Data set [5] deals with IN CCD^F185K (HIV-1 (NL4-3)). The experiment in a line: SEC-MALS + AUC + other: SEC-SAXS.
Data set [6] concerns the molecule itself. Kind of data set: SEC-MALS.
Data set [7] concerns the molecule itself. The experiment in a line: SEC-SAXS.

As to “HFS-IN(CTD)^220-280(L242A) (from UniProt P12497 221-281) (domain or fragment)”, the KD without BI-224436 in data set [1] was more than 1000 µM.

On to “HIV integrase CTD CTD (from UniProt O93215)”, for which the Kd in data set [2] was 1 µM.

HIV-1 integrase IN^F185H,L242A (enzyme): the stoichiometry N in data set [3] and in data set [4] was 2 each time.

Take IN CCD^F185K (domain or fragment): the stoichiometry N in data set [5] stood at 2.

B1: His6-FLAG-SUMO (HFS)-tagged CTD^220-270, wild type (domain or fragment)
chain: IQNFRVYYRDSRDPVWKGPAKLLWKGEGAVVIQDNSDIKVVPRRKAKIIRD
In the case of B1, the “stoichiometry N” value in data set [6] is 2.

B2: CTD^220-270 (domain or fragment)
chain: B1 chain
Consider B2, for which the “stoichiometry N” value in data set [7] is 2.

As usually defined, the Kd is the concentration at which binding is half-saturated. Usually stoichiometry N stands for a count of units in the complex or per binding partner.
